Data set [1] is described as follows: In vivo toxicity evaluation after intravenous treatment. Conditions: for H&E staining of kidney sections, pathological features / H&E staining of spleen sections, pathological features / serum alanine aminotransferase (ALT) level / serum aspartate aminotransferase (AST) level / serum blood nitrogen urea (BUN) level: 10 mg/kg AMP equivalent dose. From the text: FIG. 5. In vivo toxicity evaluation of a model ABD-AMP conjugate. (A) Treatment groups and their body conditions. (B) Serum chemistry analysis of ALT, AST, and BUN. (C) H&E staining of spleen and kidneys sections. Arrows indicate protein casts or apoptotic bodies.
Given a favorable biodistribution profile of ABD-AMP conjugate, we next evaluated if our conjugate could improve safety profile of AMP. We performed toxicity evaluation in mice following intravenous treatments with free AMP (D)Pex or conjugate (ABD)2-(EEG)6-S12-(D)Pex at 5 and 10 mg/kg AMP equivalent doses (FIG. 5A). […] In the spleens of the (D)Pex-treated mice, patches of apoptotic lymphocytes were observed. These pathological features were not observed in mice treated with the conjugate at the equivalent AMP dose. Altogether, our conjugate formulation effectively improves safety profile of AMP following systemic administration.

Data set [2] deals with Pseudomonas aeruginosa PAO1. Kind of data set: Antibacterial assay (MIC) on PAO1, conjugate with and without thrombin pre-cleavage. In kind it is cell-based. To be noted: for fold activity masking in term of antibacterial activity on PAO1: peptide formulated into ABD-AMP conjugate, with and without thrombin pre-cleavage (FIGS. 6A and B). From the text: (§1) FIG. 3. In vitro evaluation of a model ABD-AMP conjugate. (A) Schematic of (ABD)2-(EEG)6-S12-(D)Pex. (B) Antibacterial assay on PAO1 treated with conjugate with and without thrombin pre-cleavage. OD600 indicates extent of bacteria viability. (C) MTS-based mammalian toxicity evaluation of L929 fibroblasts. (D) Hemolysis assay on mouse red blood cells.
(§2) FIG. 6. Evaluation of activity masking for alternative AMPs and alternative application. Antibacterial assay on PAO1 treated with (A) (ABD)2-(EEG)6-512-POL7080 and (B) (ABD)2-(EEG)6-S12-Colistin with and without thrombin pre-cleavage. OD600 indicates extent of bacteria viability. (C) Evaluation of anticancer activity masking of (ABD)2-(EEG)6-S12-(D)Pex on HepG2 cell line by an MTS assay.
(§3) To verify activity masking of our therapeutics, we evaluated antibacterial activity of our model ABD-AMP conjugate candidate ((ABD)2-(EEG)6-S12-(D)Pex) (FIG. 3A) with and without thrombin pre-activation on Pseudomonas aeruginosa PAO1. […] Overall, formulating AMP as an ABD-AMP conjugate provides an activity mask that can be activated with cleavage of the cleavable linker.
To ensure broad application across different therapeutic peptides, we formulated additional AMPS (POL7080 and colistin) into ABD-AMP conjugates and evaluated the extent of activity masking. […] Given that several AMPS are widely explored for anticancer property capitalizing on higher negative charge of cancer cell membrane, we determined whether ABD-AMP conjugate formulation could be utilized in the cancer context. Cell toxicity assay of (ABD)2-(EEG)6-S12-(D)Pex was performed on human hepatocellular carcinoma cell line HepG2 (FIG. 6C).

Data set [3] has as its system L929 fibroblasts. To be noted: intact conjugate; MTS.
Text: as §1, §3

Data set [4] deals with mouse red blood cells. Conditions: intact conjugate.
Text: as §1, §3

In data set [5] the test system is human hepatocellular carcinoma cell line HepG2. Briefly: Cell toxicity (MTS) assay on HepG2, anticancer activity masking. In kind it is cell-based.
Text: as §2
To ensure broad application across different therapeutic peptides, we formulated additional AMPS (POL7080 and colistin) into ABD-AMP conjugates and evaluated the extent of activity masking. A 64-fold activity masking was similarly observed for both peptides in term of antibacterial activity on PAO1 (FIGS. 6A and B) confirming robust activity masking of AMPS across diverse secondary structures. Given that several AMPS are widely explored for anticancer property capitalizing on higher negative charge of cancer cell membrane, we determined whether ABD-AMP conjugate formulation could be utilized in the cancer context. Cell toxicity assay of (ABD)2-(EEG)6-S12-(D)Pex was performed on human hepatocellular carcinoma cell line HepG2 (FIG. 6C). […] Altogether, ABD-AMP conjugate platform represents a generalizable platform for formulating diverse activatable therapeutic peptides for different disease applications with aberrant protease microenvironment such as microbial infection and cancer.

The text on data set [6]:
FIG. 4. In vivo pharmacokinetic and biodistribution evaluations of a model ABD-AMP conjugate. […] (B) Pharmacokinetics of ABD-AMP-Cy7 conjugate and a free AMP-Cy7 control. (C) Experimental timeline for time-lapse biodistribution and conjugate activation evaluation in a PAO1 lung infection model. Quantification of intact and active AMP contents in (D) lungs, (E) kidneys, (F) liver, and (G) spleen at different time points. […] (I) Estimated fold change at equivalent lung exposure of active AMP content.
To study time-lapse biodistribution and conjugate activation in an infection context, we first infected mice with PAO1 via intratracheal instillation (IT) (FIG. 4C). The conjugate or free AMP control were intravenously (IV) administered 6 h post infection. The mice were euthanized at different time points, and organs were harvested and homogenized for quantification of conjugate and released AMP contents via SDS-PAGE analysis. […] Alternatively, when estimating at the equivalent lung exposure of active AMP, our conjugate reduced exposure of active AMP to kidneys, liver, and spleen by 3.1, 9.3, and 4.2 fold, respectively (FIG. 4I).

The results in this text go back to US12448418B2, “Activatable therapeutic peptides and uses thereof” (priority 2022, dated 2025).

On to `CC[C@@H](C)[C@@H](NC(=O)CN)C(=O)NCC(=O)N[C@H](CCCCN)C(=O)N[C@H](Cc1ccccc1)C(=O)N[C@H](CC(C)C)C(=O)N[C@H](CCCCN)C(=O)N[C@H](CCCCN)C(=O)N[C@H](C)C(=O)N[C@H](CCCCN)C(=O)N[C@H](CCCCN)C(=O)N[C@H](Cc1ccccc1)C(=O)NCC(=O)N[C@H](CCCCN)C(=O)N[C@H](C)C(=O)N[C@H](Cc1ccccc1)C(=O)N[C@@H](C(=O)N[C@H](CCCCN)C(=O)N[C@@H](C(=O)N[C@H](CC(C)C)C(=O)N[C@H](CCCCN)C(=O)N[C@H](CCCCN)C(N)=O)[C@H](C)CC)C(C)C` [(D)Pex, GiGkflkkakkfGkafvkilkk-CONH2 (SEQ ID NO: 74)], for which the “mice that did not survive to the end point” value in data set [1] (10 mg/kg, 24 h end point) is 3 out of 5. In addition, in data set [1] (mice), the “H&E staining of kidney sections, pathological features” value was “significant damage”; the “H&E staining of spleen sections, pathological features” value is recorded as “significant damage”; the “serum alanine aminotransferase (ALT) level” value is on record as “exceeding the reference range”; the “serum aspartate aminotransferase (AST) level” value is listed as “exceeding the reference range”. The “serum blood nitrogen urea (BUN) level” value in data set [1] (mice) is “exceeding the reference range”. Further, the “body condition (signs of distress)” value in data set [1] (mice, 10 mg/kg, observed 24 h) is “evident signs of distress”.
As for “6-methyloctanoic acid-Dab-Thr-Dab-(Dab-Dab-(D-Leu)-Leu-Dab-Dab-Thr) (SEQ ID NO: 84) [colistin]”, in data set [2], the “fold activity masking in term of antibacterial activity on PAO1” value is reported as 64 fold.
For “Cyclo-(T-W-I-(Dab)-(Orn)-(Dab)-(Dab)-W-(Dab)-(Dab)-A-S-p-P) (SEQ ID NO: 88) [POL7080]”, in data set [2], the “fold activity masking in term of antibacterial activity on PAO1” value is given as 64 fold.

B1: (ABD)2-(EEG)6-S12-(D)Pex: model ABD-AMP conjugate, Table 8, SEQ ID NO: 157 (conjugate)
chain: GLKEAKEKAIEELKKAGITSDYYFDLINKAKTVEGVNALKDEILKAGGGGSGGGGSGGGGSLKEAKEKAIEELKKAGITSDYYFDLINKAKTVEGVNALKDEILKAHHHHHHSPSTPPTPSPSTPPEEGEEGEEGEEGEEGEEGPLGLRSWGCGIGKFLKKAKKFGKAFVKILKK
modifications: MISC_FEATURE - Chemically linked by a (DBCO-Maleimide)-Azidoacetyl; SITE 155 MISC_FEATURE - D amino acid; MISC_FEATURE - D amino acid
For B1, in data set [3], the “masking of mammalian toxicity on L929 fibroblasts” value is given as “effectively mask”. The masking of hemolysis result in data set [4] is on record as “effectively mask”. In data set [1] (mice), the “H&E staining of kidney sections, pathological features” value is “not observed”; the “H&E staining of spleen sections, pathological features” value is given as “not observed”; the “serum alanine aminotransferase (ALT) level” value was “within the normal reference range”; the “serum aspartate aminotransferase (AST) level” value is given as “within the normal reference range”. The “serum blood nitrogen urea (BUN) level” value in data set [1] (mice) was “within the normal reference range”. Also, the “tolerability / body condition” value in data set [1] (mice, 5 and 10 mg/kg AMP equivalent doses, observed 24 h) is “well tolerated up to the highest dose tested with no signs of distress”. Besides, in data set [5] (thrombin pre-cleaved), the “cell toxicity on HepG2, after activation by target protease (Thrombin)” value is “restored”. Moreover, the “cell toxicity on HepG2, intact conjugate” value in data set [5] (without protease activation) was “natively inactive”. Besides, the “fold higher minimum inhibitory concentration (MIC) of intact conjugate” value in data set [2] (intact conjugate versus thrombin pre-activated, PAO1, MIC = lowest treatment concentration that fully inhibits bacteria growth) amounted to 64 fold.

B2: (ABD)2-(EEG)6-S12-(D)Pex-Cy7: Cy7-labelled model ABD-AMP conjugate, Table 8, SEQ ID NO: 158 (conjugate)
chain: GLKEAKEKAIEELKKAGITSDYYFDLINKAKTVEGVNALKDEILKAGGGGSGGGGSGGGGSLKEAKEKAIEELKKAGITSDYYFDLINKAKTVEGVNALKDEILKAHHHHHHSPSTPPTPSPSTPPEEGEEGEEGEEGEEGEEGPLGLRSWGCGIGKFLKKAKKFGKAFVKILKKK
modifications: Cy7 label; MISC_FEATURE - Chemically linked -(DBCO-Maleimide)-Azidoacetyl; SITE 155 MISC_FEATURE - D amino acid; MISC_FEATURE - D amino acid; SITE 176 MISC_FEATURE - linked to (Cy7)
In the case of B2, the “fold increase in area-under-the-concentration-time curve (AUC), circulation” value in data set [6] (compared to the free (D)Pex-Cy7 control) is recorded as 91 fold. Moreover, in data set [6] (mouse, in vivo), the “AUC fold higher active AMP delivered to the lungs” value worked out at 2.6 fold; the “AUC fold reduction of active AMP exposure, kidneys” value worked out at 1.2 fold; the “AUC fold reduction of active AMP exposure, liver” value was 3.6 fold; the “AUC fold reduction of active AMP exposure, spleen” value came out at 1.6 fold. Also, in data set [6] (mouse, in vivo), the “fold reduction of active AMP exposure, kidneys, at equivalent lung exposure” value came to 3.1 fold; the “fold reduction of active AMP exposure, liver, at equivalent lung exposure” value came out at 9.3 fold; the “fold reduction of active AMP exposure, spleen, at equivalent lung exposure” value was found to be 4.2 fold.
